The target in test [1] is T1, mTOR (mammalian target of rapamycin), endogenous protein of human cell lines (human, UniProt P42345 1-2549). The test is described as follows: co-IP from transfected HEK293T cells, western blot (FIG. 6B, 8D).
The target of test [2] is T1, mTOR (mammalian target of rapamycin), …. Kind of test: anti-HA immunoprecipitates from transfected HEK293T cells, mTOR western blot (FIG. 6B). How it is done:
3 million HEK293T cells in 6-cm dishes were transfected with plasmid constructs and amounts indicated in the Figure legends using the Lipofectamine 2000 transfection reagent (Life Technology). 24 hours after DNA addition, cells were rinsed once with PBS and lysed in 300 μl of ice-cold Buffer B. Immune complexes were prepared from cleared supernatants using 3 μg polyclonal anti-myc or monoclonal anti-HA antibodies and 20 μl of a 50% slurry protein G-Sepharose. After a 3 hour incubation, immuneprecipitates were washed six times with Buffer B and twice with Wash Buffer 2. Bound proteins were eluted in 1× sample buffer, and mTOR or HA- or myc-tagged proteins were detected by immunoblotting as described (Burnett et al., PNAS 95:1432-143 (1998)).
For orientation: In western blotting, separated proteins are transferred to a membrane and probed.

Where a chain is given by its changes, count along the chain named.

B1: HA-raptor mut1 (194YDC196-AAA) (other, not shown: small tags and cut ends)
chain: MESEMLQSPLLGLGEEDEADLTDWNLPLAFMKKRHCEKIEGSKSLAQSWRMKDRMKTVSVALVLCLNVGVDPPDVVKTTPCARLECWIDPLSMGPQKALETIGANLQKQYENWQPRARYKQSLDPTVDEVKKLCTSLRRNAKEERVLFHYNGHGVPRPTVNGEVWVFNKNYTQYIPLSIYDLQTWMGSPSIFVAAASNAGLIVKSFKQFALQREQELEVAAINPNHPLAQMPLPPSMKNCIQLAACEATELLPMIPDLPADLFTSCLTTPIKIALRWFCMQKCVSLVPGVTLDLIEKIPGRLNDRRTPLGELNWIFTAITDTIAWNVLPRDLFQKLFRQDLLVASLFRNFLLAERIMRSYNCTPVSSPRLPPTYMHAMWQAWDLAVDICLSQLPTIIEEGTAFRHSPFFAEQLTAFQVWLTMGVENRNPPEQLPIVLQVLLSQVHRLRALDLLGRFLDLGPWAVSLALSVGIFPYVLKLLQSSARELRPLLVFIWAKILAVDSSCQADLVKDNGHKYFLSVLADPYMPAEHRTMTAFILAVIVNSYHTGQEACLQGNLIAICLEQLNDPHPLLRQWVAICLGRIWQNFDSARWCGVRDSAHEKLYSLLSDPIPEVRCAAVFALGTFVGNSAERTDHSTTIDHNVAMMLAQLVSDGSPMVRKELVVALSHLVVQYESNFCTVALQFIEEEKNYALPSPATTEGGSLTPVRDSPCTPRLRSVSSYGNIRAVATARSLNKSLQNLSLTEESGGAVAFSPGNLSTSSSASSTLGSPENEEHILSFETIDKMRRASSYSSLNSLIGVSFNSVYTQIWRVLLHLAADPYPEVSDVAMKVLNSIAYKATVNARPQRVLDTSSLTQSAPASPTNKGVHIHQAGGSPPASSTSSSSLTNDVAKQPVSRDLPSGRPGTTGPAGAQYTPHSHQFPRTRKMFDKGPEQTADDADDAAGHKSFISATVQTGFCDWSARYFAQPVMKIPEEHDLESQIRKEREWRFLRNSRVRRQAQQVIQKGITRLDDQIFLNRNPGVPSVVKFHPFTPCIAVADKDSICFWDWEKGEKLDYFHNGNPRYTRVTAMEYLNGQDCSLLLTATDDGAIRVWKNFADLEKNPEMVTAWQGLSDMLPTTRGAGMVVDWEQETGLLMSSGDVRIVRIWDTDREMKVQDIPTGADSCVTSLSCDSHRSLIVAGLGDGSIRVYDRRMALSECRVMTYREHTAWVVKASLQKRPDGHIVSVSVNGDVRIFDPRMPESVNVLQIVKGLTALDIHPQADLIACGSVNQFTAIYNSSGELINNIKYYDGFMGQRVGAISCLAFHPHWPHLAVGSNDYYISVYSVEKRVR
notes: also called mutant 1
Take B1: the binding result in test [1] was “no binding”.

B2: HA-raptor mut 7 (738SLQN741-PAAA) (other, not shown: small tags and cut ends)
chain: B1 chain with A194Y, A195D, A196C, S738P, L739A, Q740A, N741A
notes: also called mutant 7
As to B2, in test [2], the binding result is given as “binds”.

B3: HA-raptor mut 9 (1191RVYDRR1196-DAAADD) (other, not shown: small tags and cut ends)
chain: B1 chain with A194Y, A195D, A196C, R1191D, V1192A, Y1193A, D1194A, R1195D, R1196D
As to B3, in test [2], the binding result was “no binding”.

B4: HA-raptor mut3 (313NWIF316-AAAA) (other, not shown: small tags and cut ends)
chain: B1 chain with A194Y, A195D, A196C, N313A, W314A, I315A, F316A
For the molecule B4, the binding result in test [2] was “no binding”.

B5: HA-raptor mut2 (261DLF263-AAA) (other, not shown: small tags and cut ends)
chain: B1 chain with A194Y, A195D, A196C, D261A, L262A, F263A
In the case of B5, in test [2], the binding result is “no binding”.

These data come from patent US20040072207A1 (WHITEHEAD INSTITUTE FOR BIOMEDICAL RESEARCH, published 2004).
